Laboratory results taken from US20240368565A1, “COMPLEMENTATION-BASED TAGS AND REPORTERS FOR DUAL-MODALITY LABELING” (Promega Corporation, priority 2023, published 2024).

Tests used:
DualTag peptide [1] = assay: Dissociation kinetics after complementation with synthetic peptide (dilution, luminescence); settings: 100 nM protein, 200 nM peptide, diluted to 1 pM, furimazine
Description: After preincubation with peptide, samples were diluted to 1 pM in either buffer alone or buffer 100 nM Tag peptide. At various time points, samples were transferred into luminescent substrate (Furimazine) to monitor dissociation of the complex.

DualTag peptide [2] = assay: BRET measurement of reporter stabilization by synthetic peptide; format: biochemical; settings: room temperature, HaloTag NanoBRET 618 Ligand, versus LgHT-LgBiT alone
Description: FIG. 122A-C. […] After preincubation with peptide at 4° C., solutions were diluted 100-fold into buffer and incubated at room temperature. At time points, samples were added 1:1 to buffer either containing or lacking 10 nM final HaloTag® NanoBRET® 618 Ligand. For the reporter alone condition, samples were added 1:1 to a solution containing 10 nM final VS-HiBiT peptide with or without the 618 ligand in order to complement the LgBiT to create the BRET donor. After the last time point, furimazine substrate was added, followed by measuring the FIG. 122(A) luminescent donor signal using a 450 nm bandpass filter and FIG. 122(B) luminescent acceptor signal using a 600 nm longpass filter. The BRET ratio FIG. 122(C) is determined by dividing the acceptor signal by the donor signal for each sample.

B1: LgHT-LgBiT: tandem polypeptide reporter (Reporter) of FIG. 120, 122, 124 (protein)
chain: MFHYVDVGPRDGTPVLFLHGNPTSSYVWRNIIPHVAPTHRCIAPDLIGMGKSDKPDLGYFFDDHVRFMDAFIEALGLEEVVLVIHDWGSALGFHWAKRNPERVKGIAFMEFIRPIPTWDEWPEFARETFQAFRTTDVGRKLIIDQNVFIEGTLPMGVVRPLTEVEMDHYREPFLNPVDREPLWRFPNELPIAGEPANIVALVEEYMDWLHQSPVPKLLFWGTPGVLIPPAEAARLAKSLPNCKAVDIGPGLNLLQEDNPDLIGSEIARWLSTLEISGGSGGSGGGGSGGMVFTLEDFVGDWEQTAAYNLDQVLEQGGVSSLLQNLAVSVTPIQRIVRSGENALKIDIHVIIPYEGLSADQMAQIEEVFKVVYPVDDHHFKVILPYGTLVIDGVTPNMLNYFGRPYEGIAVFDGKKITVTGTLWNGNKIIDERLITPDGSMLFRVTINSGSGHHHHHH
Dissociation from the DualTag peptide (DualTag peptide [1]): exceptionally slow dissociation kinetics | LgBiT luminescence and LgHT ligand binding activity over time (Raw BRET ratio) (DualTag peptide [2]): remain intact for longer
